According to paper PMC4066409:

Legend:
[1] = tested on: NZF-1-F2F3 H515Q; assay: fluorescence anisotropy; conditions: not given in the material (ESI)
[2] = tested on: NZF-1-F2F3 H559Q; assay: fluorescence anisotropy; conditions: not given in the material (ESI)

For βRAR DNA, which Kd [1] is on record?
Its Kd is 3 µM.

And the Kd [2]?
The Kd was 3.7 µM.
